This experiment deals with G-actin (rabbit muscle actin monomers) (rabbit, UniProt P68135 1-377). The experiment is described as follows: fluorescence polarisation; competition: anisotropy of 50 nM Rhodamine-VCA with 150 nM G-actin and increasing VCA or VCA mutants; 10 mM Hepes pH 7.0, 50 mM KCl, 1 mM MgCl2, 1 mM EGTA, 1 mM DTT, 0.2 mM ATP, 350 nM Latrunculin B; KD is the mean of at least three fits. Conditions: both partners purified.

B1: N-WASP-VCA (domain or fragment)
chain: PVSCSGRDALLDQIRQGIQLKSVTDAPESTPPAPAPTSGIVGALMEVMQKRSKAIHSSDEDEDEDDDEDFEDDDEWED
notes: N-WASP, VCA region (verprolin homology, central, acidic); The text implies a GST tag with a TEV site on the VCA constructs; also called monomeric VCA; WT; source: purified as described previously (Hetrick et al., 2013)
Take B1: binding was put at a Kd of 560 ± 30 nM.

In general, Kd refers to a measure of binding affinity in units of concentration.

These data come from paper PMC3762189, “Mechanism of synergistic activation of Arp2/3 complex by cortactin and N-WASP” (eLife, 2013).
